Measured values published in US20150337019.

Tests used:
[1] = system: MGO-modified MRJP (MRJP mixture treated with MGO)
[2] = system: native hexamer form of MRJP1
[3] = system: monomeric form of royalactin

Cathepsin B from bovine spleen
Cathepsin B digestion, native PAGE [1]: Cathepsin B is unable to hydrolyze the protein at pH 7.0 but was able to hydrolyze the lower molecular weight species produced at pH 4.0
Cathepsin B digestion (data not shown) [2]: the native hexamer form of MRJP1 and the monomeric form of royalactin were readily degraded by this enzyme
Cathepsin B digestion (data not shown) [3]: the native hexamer form of MRJP1 and the monomeric form of royalactin were readily degraded by this enzyme
